Experimental data as given in PMC7994445.

Key:
[1] = target: smooth muscle actin filaments (UniProt P62736)
[2] = target: PfActin-1 filaments (Plasmodium falciparum) (UniProt Q8I4X0)
[3] = target: rabbit skeletal actin filaments (rabbit) (UniProt P68135)

Sequence of Full-length phosphorylated smooth muscle myosin (P10587 whole entry, looked up): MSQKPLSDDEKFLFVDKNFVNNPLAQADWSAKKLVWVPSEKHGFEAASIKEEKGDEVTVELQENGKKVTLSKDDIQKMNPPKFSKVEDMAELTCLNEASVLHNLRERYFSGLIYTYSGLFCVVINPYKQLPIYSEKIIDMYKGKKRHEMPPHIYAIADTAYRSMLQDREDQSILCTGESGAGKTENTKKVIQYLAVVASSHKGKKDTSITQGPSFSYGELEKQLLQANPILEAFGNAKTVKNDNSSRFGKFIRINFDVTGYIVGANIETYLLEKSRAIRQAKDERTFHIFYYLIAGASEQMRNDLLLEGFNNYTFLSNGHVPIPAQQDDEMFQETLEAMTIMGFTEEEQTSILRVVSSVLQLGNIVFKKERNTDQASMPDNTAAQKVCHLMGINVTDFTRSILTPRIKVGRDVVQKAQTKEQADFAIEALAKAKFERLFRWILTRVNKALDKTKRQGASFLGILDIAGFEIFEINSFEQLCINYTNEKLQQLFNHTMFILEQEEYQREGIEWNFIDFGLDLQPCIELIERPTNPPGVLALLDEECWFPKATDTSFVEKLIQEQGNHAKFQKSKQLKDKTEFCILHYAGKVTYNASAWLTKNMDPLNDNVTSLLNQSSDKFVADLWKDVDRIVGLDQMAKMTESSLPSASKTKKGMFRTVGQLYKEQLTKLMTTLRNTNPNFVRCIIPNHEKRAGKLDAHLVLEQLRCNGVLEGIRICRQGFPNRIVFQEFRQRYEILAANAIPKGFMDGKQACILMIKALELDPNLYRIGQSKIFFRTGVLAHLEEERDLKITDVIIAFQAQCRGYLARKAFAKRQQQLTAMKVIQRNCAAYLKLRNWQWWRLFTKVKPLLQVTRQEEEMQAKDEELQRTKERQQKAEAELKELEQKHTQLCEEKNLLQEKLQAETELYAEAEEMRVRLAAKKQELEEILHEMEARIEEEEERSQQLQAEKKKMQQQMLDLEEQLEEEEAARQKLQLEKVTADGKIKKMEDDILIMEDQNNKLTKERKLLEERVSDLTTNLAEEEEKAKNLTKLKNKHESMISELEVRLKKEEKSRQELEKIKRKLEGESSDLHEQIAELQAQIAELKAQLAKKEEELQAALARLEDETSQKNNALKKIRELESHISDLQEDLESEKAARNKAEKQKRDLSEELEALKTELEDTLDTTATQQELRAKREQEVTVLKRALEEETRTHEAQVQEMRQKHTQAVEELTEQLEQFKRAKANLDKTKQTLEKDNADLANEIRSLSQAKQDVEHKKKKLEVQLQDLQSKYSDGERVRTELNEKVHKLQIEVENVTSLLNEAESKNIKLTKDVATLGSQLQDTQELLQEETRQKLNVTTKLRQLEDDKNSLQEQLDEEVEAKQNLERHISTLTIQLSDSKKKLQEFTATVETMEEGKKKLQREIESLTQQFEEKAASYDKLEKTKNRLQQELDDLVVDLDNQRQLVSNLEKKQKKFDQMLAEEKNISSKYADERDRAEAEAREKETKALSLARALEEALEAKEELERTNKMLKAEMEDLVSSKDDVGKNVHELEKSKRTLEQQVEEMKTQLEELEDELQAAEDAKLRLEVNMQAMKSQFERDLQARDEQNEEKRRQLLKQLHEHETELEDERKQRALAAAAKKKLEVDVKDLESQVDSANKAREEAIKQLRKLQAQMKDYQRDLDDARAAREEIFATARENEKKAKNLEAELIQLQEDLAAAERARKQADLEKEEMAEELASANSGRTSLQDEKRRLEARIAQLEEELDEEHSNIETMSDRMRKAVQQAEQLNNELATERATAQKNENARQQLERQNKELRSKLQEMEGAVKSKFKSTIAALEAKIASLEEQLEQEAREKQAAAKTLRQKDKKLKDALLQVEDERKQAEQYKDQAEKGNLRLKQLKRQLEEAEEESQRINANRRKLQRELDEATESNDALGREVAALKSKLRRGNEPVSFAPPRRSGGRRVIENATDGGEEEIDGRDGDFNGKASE

| Substance | in vitro motility speed, smooth muscle actin filaments moved by myosin held on the coverslip, 30 °C [1] | in vitro motility speed, JAS-stabilized PfAct1 filaments moved by myosin held on the coverslip, 30 °C [2] | in vitro motility speed, unstabilized PfAct1 filaments (no JAS) moved by myosin held on the coverslip, 30 °C [2] | in vitro motility speed, skeletal muscle actin filaments moved by myosin held on the coverslip, 30 °C [3] | in vitro motility speed, smooth muscle actin filaments moved by myosin adhered to the coverslip, 30 °C [1] | in vitro motility speed, JAS-stabilized PfAct1 filaments moved by myosin adhered to the coverslip, 30 °C [2] | in vitro motility speed, skeletal muscle actin filaments moved by myosin adhered to the coverslip, 30 °C [3] |
| --- | --- | --- | --- | --- | --- | --- | --- |
| PfMyoA with a C-terminal biotin tag (from UniProt Q8IDR3 1-818) (complex) | 4.21 µm/s | 3.55 µm/s | 3.98 µm/s | 3.85 µm/s |  |  |  |
| Full-length phosphorylated smooth muscle myosin (from UniProt P10587 1-1979) (complex) |  |  |  |  | 0.51 µm/s | 0.53 µm/s | 0.62 µm/s |
